Measurements as given in PMC3585047 (The Journal of Biological Chemistry, 2013).

Molecular target: APOBEC3G, fluorescein-labelled (F-A3G) (human, UniProt Q9HC16 1-384, fluorescein (Fluorescein-EX Protein Labeling kit), sites not stated)
Test: fluorescence polarisation

Sequence of APOBEC3G, fluorescein-labelled (F-A3G) (Q9HC16 whole entry): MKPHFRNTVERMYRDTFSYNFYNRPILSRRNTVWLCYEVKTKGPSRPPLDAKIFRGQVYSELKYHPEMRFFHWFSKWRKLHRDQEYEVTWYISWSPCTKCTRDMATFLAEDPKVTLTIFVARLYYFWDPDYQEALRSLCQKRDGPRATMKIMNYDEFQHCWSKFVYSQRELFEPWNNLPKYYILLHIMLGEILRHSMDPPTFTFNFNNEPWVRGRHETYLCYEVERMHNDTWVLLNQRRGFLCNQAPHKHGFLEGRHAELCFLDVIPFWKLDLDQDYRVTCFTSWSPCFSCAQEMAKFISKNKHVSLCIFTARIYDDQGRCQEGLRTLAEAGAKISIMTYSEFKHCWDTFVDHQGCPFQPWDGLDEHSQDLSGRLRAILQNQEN

B1: GST-Vif_(IIIB) (natural protein)
chain: not shown
Kd: 78 nM

B2: GST-Vif_(HXB2) (natural protein)
chain: not shown
Kd: 90 nM
